B1: Type-1 angiotensin II receptor A (Rattus norvegicus (Rat)), P25095 (parent)
chain: MALNSSAEDGIKRIQDDCPKAGRHSYIFVMIPTLYSIIFVVGIFGNSLVVIVIYFYMKLKTVASVFLLNLALADLCFLLTLPLWAVYTAMEYRWPFGNHLCKIASASVSFNLYASVFLLTCLSIDRYLAIVHPMKSRLRRTMLVAKVTCIIIWLMAGLASLPAVIHRNVYFIENTNITVCAFHYESRNSTLPIGLGLTKNILGFLFPFLIILTSYTLIWKALKKAYEIQKNKPRNDDIFRIIMAIVLFFFFSWVPHQIFTFLDVLIQLGVIHDCKISDIVDTAMPITICIAYFNNCLNPLFYGFLGKKFKKYFLQLLKYIPPKAKSHSSLSTKMSTLSYRPSDNMSSSAKKPASCFEVE

Variants of B1 are the subject of one assay. To be noted: with angt_human AGT.
Regarding MALNSSAEDGIKRIQDDCPKAGRHSYIFVMIPTLYSIIFVVGIFGNSLVVIVIYFYMKLKTVASVFLLNLALADLCFLLTLPLWAVYTAMEYRWPFGNHLCKIASASVSFNLYASVFLLTCLSIDRYLAIVHPMKSRLRRTMLVAKVTCIIIWLMAGLASLPAVIHRNVYFIENTNITVCAFHYESRNSTLPIGLGLTKNILGFLFPFLIILTSYTLIWKALKKAYEIQKNKPRNDDIFRIIMAIVLFFFFSWVPHQIFTFLDVLIQLGVIHDCKISDIVDTAMPITICIAYFNCCLNPLFYGFLGKKFKKYFLQLLKYIPPKAKSHSSLSTKMSTLSYRPSDNMSSSAKKPASCFEVE [N295C], the “effect of a mutation on the interaction” value is “decreasing interaction”.
Regarding MALNSSAEDGIKRIQDDCPKAGRHSYIFVMIPTLYSIIFVVGIFGNSLVVIVIYFYMKLKTVASVFLLNLALADLAFLLTLPLWAVYTAMEYRWPFGNHLCKIASASVSFNLYASVFLLTCLSIDRYLAIVHPMKSRLRRTMLVAKVTCIIIWLMAGLASLPAVIHRNVYFIENTNITVCAFHYESRNSTLPIGLGLTKNILGFLFPFLIILTSYTLIWKALKKAYEIQKNKPRNDDIFRIIMAIVLFFFFSWVPHQIFTFLDVLIQLGVIHDCKISDIVDTAMPITIAIAYFNNCLNPLFYGFLGKKFKKYFLQLLKYIPPKAKSHSSLSTKMSTLSYRPSDNMSSSAKKPASCFEVE [C76A;C289A], the “effect of a mutation on the interaction” value is “decreasing interaction”.

Another assay covers variants of B1. Conditions: with angt_human AGT. This is another data set of the same source.
As to MALNSSAEDGIKRIQDDCPKAGRHSYIFVMIPTLYSIIFVVGIFGNSLVVIVIYFYMKLKTVASVFLLNLALADLAFLLTLPLWAVYTAMEYRWPFGNHLCKIASASVSFNLYASVFLLTCLSIDRYLAIVHPMKSRLRRTMLVAKVTCIIIWLMAGLASLPAVIHRNVYFIENTNITVCAFHYESRNSTLPIGLGLTKNILGFLFPFLIILTSYTLIWKALKKAYEIQKNKPRNDDIFRIIMAIVLFFFFSWVPHQIFTFLDVLIQLGVIHDCKISDIVDTAMPITIAIAYFNNCLNPLFYGFLGKKFKKYFLQLLKYIPPKAKSHSSLSTKMSTLSYRPSDNMSSSAKKPASCFEVE [C76A;C289A], the “effect of a mutation on the interaction” value is “decreasing interaction”.

In another assay the parent is B1. To be noted: with angt_human AGT. The source holds these as a separate data set.
For MALNSSAEDGIKRIQDDCPKAGRHSYIFVMIPTLYSIIFVVGIFGNSLVVIVIYFYMKLKTVASVFLLNLALADLAFLLTLPLWAVYTAMEYRWPFGNHLCKIASASVSFNLYASVFLLTCLSIDRYLAIVHPMKSRLRRTMLVAKVTCIIIWLMAGLASLPAVIHRNVYFIENTNITVCAFHYESRNSTLPIGLGLTKNILGFLFPFLIILTSYTLIWKALKKAYEIQKNKPRNDDIFRIIMAIVLFFFFSWVPHQIFTFLDVLIQLGVIHDCKISDIVDTAMPITIAIAYFNNCLNPLFYGFLGKKFKKYFLQLLKYIPPKAKSHSSLSTKMSTLSYRPSDNMSSSAKKPASCFEVE [C76A;C289A], the “effect of a mutation on the interaction” value is reported as “increasing interaction”.
The same measure, in the same setting: to MALNSSAEDGIKRIQDDCPKAGRHSYIFVMIPTLYSIIFVVGIFGNSLVVIVIYFYMKLKTVASVFLLNLALADLCFLLTLPLWAVYTAMEYRWPFGNHLCKIASASVSFNLYASVFLLTCLSIDRYLAIVHPMKSRLRRTMLVAKVTCIIIWLMAGLASLPAVIHRNVYFIENTNITVCAFHYESRNSTLPIGLGLTKNILGFLFPFLIILTSYTLIWKALKKAYEIQKNKPRNDDIFRIIMAIVLFFFFSWVPHQIFTFLDVLIQLGVIHDCKISDIVDTAMPITICIAYFCNCLNPLFYGFLGKKFKKYFLQLLKYIPPKAKSHSSLSTKMSTLSYRPSDNMSSSAKKPASCFEVE [N294C] belongs “increasing interaction”.

In a further assay the parent is B1. Conditions: with angt_human AGT. The source holds these as a separate data set.
For the variant MALNSSAEDGIKRIQDDCPKAGRHSYIFVMIPTLYSIIFVVGIFGNSLVVIVIYFYMKLKTVASVFLLNLALADLAFLLTLPLWAVYTAMEYRWPFGNHLCKIASASVSFNLYASVFLLTCLSIDRYLAIVHPMKSRLRRTMLVAKVTCIIIWLMAGLASLPAVIHRNVYFIENTNITVCAFHYESRNSTLPIGLGLTKNILGFLFPFLIILTSYTLIWKALKKAYEIQKNKPRNDDIFRIIMAIVLFFFFSWVPHQIFTFLDVLIQLGVIHDCKISDIVDTAMPITICIAYFNNALNPLFYGFLGKKFKKYFLQLLKYIPPKAKSHSSLSTKMSTLSYRPSDNMSSSAKKPASCFEVE [C76A;C296A], the “effect of a mutation on the interaction” value is on record as “decreasing interaction”.

Variants of B1 are the subject of a further assay. To be noted: with angt_human AGT. This is another data set of the same source.
Consider MALNSSAEDGIKRIQDDCPKAGRHSYIFVMIPTLYSIIFVVGIFGNSLVVIVIYFYMKLKTVASVFLLNLALADLCFLLTLPLWAVYTAMEYRWPFGNHLCKIASASVSFNLYASVFLLTCLSIDRYLAIVHPMKSRLRRTMLVAKVTAIIIWLMAGLASLPAVIHRNVYFIENTNITVCAFHYESRNSTLPIGLGLTKNILGFLFPFLIILTSYTLIWKALKKAYEIQKNKPRNDDIFRIIMAIVLFFFFSWVPHQIFTFLDVLIQLGVIHDCKISDIVDTAMPITICIAYFNNCLNPLFYGFLGKKFKKYFLQLLKYIPPKAKSHSSLSTKMSTLSYRPSDNMSSSAKKPASCFEVE [C149A], for which the “effect of a mutation on the interaction” value is listed as “decreasing interaction”.

Variants of B1 are the subject of a further assay. To be noted: with angt_human AGT. This is another data set of the same source.
For the variant MALNSSAEDGIKRIQDDCPKAGRHSYIFVMIPTLYSIIFVVGIFGNSLVVIVIYFYMKLKTVASVFLLNLALADLAFLLTLPLWAVYTAMEYRWPFGNHLCKIASASVSFNLYASVFLLTCLSIDRYLAIVHPMKSRLRRTMLVAKVTCIIIWLMAGLASLPAVIHRNVYFIENTNITVCAFHYESRNSTLPIGLGLTKNILGFLFPFLIILTSYTLIWKALKKAYEIQKNKPRNDDIFRIIMAIVLFFFFSWVPHQIFTFLDVLIQLGVIHDCKISDIVDTAMPITIAIAYFNNALNPLFYGFLGKKFKKYFLQLLKYIPPKAKSHSSLSTKMSTLSYRPSDNMSSSAKKPASCFEVE [C76A;C289A;C296A], the “effect of a mutation on the interaction” value is on record as “decreasing interaction”.

These data come from IntAct's records for PubMed 18202720.
